The values that follow come from patent US20230242653A1 (TENEOBIO, published 2023).

One test has as its target T1, IL-9R (R&D Systems) (UniProt Q01113 41-270, limits assumed).
T1 sequence (looked up): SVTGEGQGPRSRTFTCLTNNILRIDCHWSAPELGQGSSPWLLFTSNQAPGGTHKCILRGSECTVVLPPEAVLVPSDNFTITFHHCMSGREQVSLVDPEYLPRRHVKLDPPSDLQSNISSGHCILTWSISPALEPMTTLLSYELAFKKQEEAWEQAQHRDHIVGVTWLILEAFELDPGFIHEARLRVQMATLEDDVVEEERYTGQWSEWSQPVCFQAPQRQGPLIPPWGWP
The test can be described thus: Octet BLI off-rate analysis, antibody on AHC sensors. The method, then:
(§1) All off-rate measurements were performed on an Octet Qk384 instrument (ForteBio), in 96-well microplates at 25° C. using anti-human IgG Fc capture (AHC, 18-5005) sensors with a shake speed of 1000 rpm. For off-rate determination, the antibodies were loaded on the AHC sensors at 5 µg/mL. Following a short baseline in kinetics buffer (0.02% Tween20, 0.1% BSA, 0.05% sodium azide, 1X PBS). Offrate measurements were done for the following: human IL-2Rβ (AcroBiosystems), human IL- 2Ry (Sino Biological), cynomolgus IL-2Rβ (Sino Biological), cynomolgus IL-2Rγ (expressed and purified in house using ExpiCHO expression system followed by Ni-NTA His-tag purification), mouse IL-2Rγ (Sino Biological), mouse IL-2Rβ (Sino Biological), human IL-2Rα (Sino Biological), IL-4R (Sino Biological), IL-7R (Sino Biological), IL-9R (R&D Systems) and IL-21R (Sino Biological). The following antibodies were used as positive controls to verify target binding and reagent quality: anti-human IL-9R (R&D Systems), anti-human IL-21R (R&D Systems), anti-human IL-7R (R&D Systems) and anti-human IL-4Ra (R&D Systems). The loaded sensors were then submerged in wells containing antigen at 100 nM concentration for association step. Dissociation was monitored in kinetics buffer. The capture surfaces were regenerated for 60 s. ForteBio data analysis software was used to fit the data to a 1:1 binding model to extract an association rate and dissociation rate.
(In BLI a coated tip is dipped into the sample, and binding shifts an interference pattern.)

A further test addresses T2, IL-4R (Sino Biological) (UniProt P24394 26-232).
T2 construct: also called IL-4Ra
T2 sequence (looked up): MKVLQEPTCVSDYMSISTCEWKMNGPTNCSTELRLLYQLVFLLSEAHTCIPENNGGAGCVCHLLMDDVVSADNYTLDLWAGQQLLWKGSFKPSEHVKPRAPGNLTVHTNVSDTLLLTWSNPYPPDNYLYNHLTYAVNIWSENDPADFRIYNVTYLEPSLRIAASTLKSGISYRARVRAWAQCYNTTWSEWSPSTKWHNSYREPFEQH
The test is described as above. The method, then: as §1

For the next test, the target named is T3, IL-7R (Sino Biological) (UniProt P16871 21-239).
T3 sequence (looked up): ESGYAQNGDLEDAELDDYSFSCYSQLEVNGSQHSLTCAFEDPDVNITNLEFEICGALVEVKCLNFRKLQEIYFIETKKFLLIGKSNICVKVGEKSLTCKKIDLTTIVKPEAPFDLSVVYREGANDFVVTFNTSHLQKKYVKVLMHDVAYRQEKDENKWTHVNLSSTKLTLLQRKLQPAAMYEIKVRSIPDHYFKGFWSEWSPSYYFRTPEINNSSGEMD
The test is described as above. The method, then: as §1

A further test concerns the target IL-21R (Sino Biological) (UniProt Q9HBE5 20-232). The description is as above. The method, then:
as §1

Test [1] deals with T4, human IL-2Rα (Sino Biological) (human, UniProt P01589 22-213, limits assumed).
T4 construct: also called IL2RA; IL-2RA
T4 sequence: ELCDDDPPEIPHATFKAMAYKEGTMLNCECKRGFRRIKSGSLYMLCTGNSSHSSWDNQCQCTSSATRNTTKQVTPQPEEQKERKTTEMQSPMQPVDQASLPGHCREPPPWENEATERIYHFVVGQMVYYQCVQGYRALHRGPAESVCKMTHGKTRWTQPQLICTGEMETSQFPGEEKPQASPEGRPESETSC
Described as above. The method, then: as §1

In test [2] the target is T5, human IL-2Rβγ receptor (IL-2RB / IL-2RG) on human T-cells (human, UniProt P14784 27-551; P31785 23-369).
T5 construct: also called IL2RB/IL2RG dimeric receptor complex
T5 sequence 1: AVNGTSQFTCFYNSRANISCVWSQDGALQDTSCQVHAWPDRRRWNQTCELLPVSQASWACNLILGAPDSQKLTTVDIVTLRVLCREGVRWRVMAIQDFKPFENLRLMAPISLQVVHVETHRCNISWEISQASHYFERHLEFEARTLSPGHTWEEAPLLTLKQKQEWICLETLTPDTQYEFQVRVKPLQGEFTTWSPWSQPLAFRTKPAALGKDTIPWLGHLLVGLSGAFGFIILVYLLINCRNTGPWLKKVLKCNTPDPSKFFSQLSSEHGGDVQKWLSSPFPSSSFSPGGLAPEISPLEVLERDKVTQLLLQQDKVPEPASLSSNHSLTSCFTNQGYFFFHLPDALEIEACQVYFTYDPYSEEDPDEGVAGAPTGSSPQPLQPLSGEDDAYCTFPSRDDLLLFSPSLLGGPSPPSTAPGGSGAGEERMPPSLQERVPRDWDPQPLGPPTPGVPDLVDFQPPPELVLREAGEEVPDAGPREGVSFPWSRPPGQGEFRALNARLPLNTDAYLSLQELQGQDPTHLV
T5 sequence 2: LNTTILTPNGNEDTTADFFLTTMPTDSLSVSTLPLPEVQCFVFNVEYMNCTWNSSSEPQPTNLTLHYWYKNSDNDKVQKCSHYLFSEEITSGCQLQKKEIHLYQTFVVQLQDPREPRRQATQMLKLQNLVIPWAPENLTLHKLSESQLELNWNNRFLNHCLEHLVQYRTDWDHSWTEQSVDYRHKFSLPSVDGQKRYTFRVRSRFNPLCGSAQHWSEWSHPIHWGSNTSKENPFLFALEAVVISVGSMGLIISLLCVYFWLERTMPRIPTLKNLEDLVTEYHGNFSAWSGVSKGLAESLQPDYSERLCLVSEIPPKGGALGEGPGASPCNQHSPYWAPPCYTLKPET
The test is described as follows: flow cytometry, human CD4+ T-cells, anti-human IgG-PE detection, gMFI as fold over secondary-only background. The method, then: (§2) All washes and dilutions of cells, antibodies, and reagents were performed using flow buffer (1X PBS, 1% BSA, 0.1% NaN3, pH 7.4). Staining was performed in a round-bottom 96-well plate (Corning) seeded at 100,000 cells/well and all incubations were performed at 4° C. or on ice. […] The cells were washed twice with 200 µL flow buffer. The cells were then incubated for 30 minutes with detection antibody (Goat F(ab′)2 Anti-Human IgG-PE, Southern Biotech) at 0.625 µg/mL in flow buffer. Following 2 more washes, the cells were resuspended in a final volume of 150 µL of flow buffer. The cells were analyzed on a BD FACSCelesta or a Guava easyCyte 8-HT flow cytometer. At least 3000 events were collected, and PE geometric mean fluorescence intensity was plotted as a fold over background (cells incubated with secondary detection antibody only). In some secondary screens involving human or cynomolgus PBMCs, an additional CD4 antibody (BioLegend) and/or CD8 antibody (BioLegend) was included to further characterize cell binding.

Test [3] has as its target T5, human IL-2Rβγ receptor (IL-2RB / …). The test is described as follows: flow cytometry, human CD8+ T-cells, anti-human IgG-PE detection, gMFI as fold over secondary-only background. The method, then: as §2
(In flow cytometry, cells or beads pass a laser one at a time.)

IL-21R (Sino Biological), sequence (Q9HBE5 20-232 limits assumed): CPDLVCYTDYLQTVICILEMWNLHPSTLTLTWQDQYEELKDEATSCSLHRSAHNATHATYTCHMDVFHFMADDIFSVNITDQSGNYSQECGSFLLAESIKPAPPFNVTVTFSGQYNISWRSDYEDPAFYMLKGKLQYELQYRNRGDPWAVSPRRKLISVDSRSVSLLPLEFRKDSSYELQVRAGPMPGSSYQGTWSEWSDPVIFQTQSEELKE

B1: IL2RB_F09G**IL2RG_F16B (bispecific antibody, human IgG4, V domains shown)
V domain 1: QVQLQESGPGLVKSSETLSLTCTVSGGSISSSDWWSWVRQPPGKGLEWIGEIDHSGSTNYNPSLMSRVTISVDKSKNQFSLKLSSVTAADTAVYFCARGSWELTDAFDIRGQGTLVTVSS
V domain 2: QVQLVESGGGLVKPGGSLRLSCAASGFTFSDYYMSWIRQAPGKGLEWVSYISSSGSTIYYADSVKGRFTISRDNAKNSLYLQMNSLRAEDTAVYYCARGDAVSITGDYRGQGTLVTVSS
notes: Bispecific heavy chain-only UniAb on silenced, stabilized human IgG4 Fc without CH1, knobs-into-holes; also called BsAb-2; not shown: C-terminal His-tag on the knob chain
The term EC50 (read off the curve) denotes the concentration at which the effect is half-maximal. Lower therefore signals an effect from little substance. Take B1: the binding result (with IL-9R (R&D Systems); with IL-4R (Sino Biological); with IL-7R (Sino Biological); with IL-21R (Sino Biological); in test [1]) was “no binding (tested: 100 nM antigen)” in each case. The “EC50 (read off the curve)” value in test [2] was about 5 nM.

B2: IL2RB_F09G**IL2RG_F18A (bispecific antibody, human IgG4, V domains shown)
V domain 1: QVQLQESGPGLVKSSETLSLTCTVSGGSISSSDWWSWVRQPPGKGLEWIGEIDHSGSTNYNPSLMSRVTISVDKSKNQFSLKLSSVTAADTAVYFCARGSWELTDAFDIRGQGTLVTVSS
V domain 2: QVQLVESGGDLVKPGGSLRLSCAASGFTFSDYYMSWLRQAPGKELEWVSHISSSGTTTYYADSVEGRFTITRDNAKNSLYLQMNSLRAEDTAVYYCARGAAVAPGFDSRGQGTLVTVSS
notes: Bispecific heavy chain-only UniAb on silenced, stabilized human IgG4 Fc without CH1, knobs-into-holes; also called BsAb-4; not shown: C-terminal His-tag on the knob chain
In the case of B2, the binding result (with IL-9R (R&D Systems); in the test with IL-4R (Sino Biological); with IL-7R (Sino Biological); with IL-21R (Sino Biological); in test [1]) was “no binding (tested: 100 nM antigen)” throughout.

B3: IL2RB_F18E**IL2RG_F16A (bispecific antibody, human IgG4, V domains shown)
V domain 1: QVQLVESGGGVVQPGRSLRLSCAASGFTFSSYGMHWVRQAPGKEREWVAVISYDGSNKYYTDSVKGRFTISRDNSKNTLYLEMNSLRAEDTAVYYCARDLDYDVLTGDPVGGFDIWGQGTLVTVSS
V domain 2: QVQLVESGGGLVKPGGSLRLSCAASGFTFSDYYMSWIRQAPGKGLEWVSSISSSGDTIYYADSVQGRFTLSRDNAENSLFLQMNSLRAEDTAVYYCARGDAVSITGDYRGQGTLVTVSS
notes: Bispecific heavy chain-only UniAb on silenced, stabilized human IgG4 Fc without CH1, knobs-into-holes; also called BsAb-6; not shown: C-terminal His-tag on the knob chain
For B3, the binding result (with IL-9R (R&D Systems); with IL-4R (Sino Biological); with IL-7R (Sino Biological); in the test with IL-21R (Sino Biological); in test [1]) was “no binding (tested: 100 nM antigen)” in each case.

B4: IL2RB_F09C**IL2RG_F16A (bispecific antibody, human IgG4, V domains shown)
V domain 1: QVQLQESGPGLVKPSGTLSLTCAVSGGSISSSDWWSWVRQPPGKGLEWIGEIDHSGSTNYNPSLMSRVTISVDKSKNQFSLKLSSVTAADTAVYFCGRGSWELSDAFDIRGQGTLVTVSS
V domain 2: QVQLVESGGGLVKPGGSLRLSCAASGFTFSDYYMSWIRQAPGKGLEWVSSISSSGDTIYYADSVQGRFTLSRDNAENSLFLQMNSLRAEDTAVYYCARGDAVSITGDYRGQGTLVTVSS
notes: Bispecific heavy chain-only UniAb on silenced, stabilized human IgG4 Fc without CH1, knobs-into-holes; also called BsAb-1; not shown: C-terminal His-tag on the knob chain
As to B4, the binding result (with IL-9R (R&D Systems); with IL-4R (Sino Biological); with IL-7R (Sino Biological); with IL-21R (Sino Biological); in test [1]) was “no binding (tested: 100 nM antigen)” in each case. Moreover, in test [2], the “EC50 (read off the curve)” value was about 5 nM.

B5: IL2RB_F09G**IL2RG_F16C (bispecific antibody, human IgG4, V domains shown)
V domain 1: QVQLQESGPGLVKSSETLSLTCTVSGGSISSSDWWSWVRQPPGKGLEWIGEIDHSGSTNYNPSLMSRVTISVDKSKNQFSLKLSSVTAADTAVYFCARGSWELTDAFDIRGQGTLVTVSS
V domain 2: QVQLVESGGGLVKPGGSLRLSCAASGFTFNDYYMSWIRQAPGKGLEWVSHISSSGSTIYYADSVKGRFTVSRDNANNSLYLQMHSLRAEDTAVYYCARGDAVSITGDYRGQGTLVTVSS
notes: Bispecific heavy chain-only UniAb on silenced, stabilized human IgG4 Fc without CH1, knobs-into-holes; also called BsAb-3; not shown: C-terminal His-tag on the knob chain
For the molecule B5, the binding result (in the test with IL-9R (R&D Systems); with IL-4R (Sino Biological); in the test with IL-7R (Sino Biological); with IL-21R (Sino Biological); in test [1]) was “no binding (tested: 100 nM antigen)” each time. The “EC50 (read off the curve)” value in test [2] and in test [3] was about 6 nM in each case.
